Non-standard residues stand in square brackets, D forms with d. d(pT) = C[C@H](OP(=O)(O)O)[C@@H](N)C(=O)O
B1: D-enantiomeric, isolated NLS region of NUPR1 with phosphorylated Thr68 (peptide)
peptide: Ac-[dY][dT][dN][dR][dP][dS][dP]GG[dH][dE][dR][dK][dL][dV][d(pT)][dK][dL][dQ][dN][dS][dE]-NH2
SMILES: CC(=O)N[C@H](Cc1ccc(O)cc1)C(=O)N[C@@H](C(=O)N[C@H](CC(N)=O)C(=O)N[C@H](CCCNC(=N)N)C(=O)N1CCC[C@@H]1C(=O)N[C@H](CO)C(=O)N1CCC[C@@H]1C(=O)NCC(=O)NCC(=O)N[C@H](Cc1c[nH]cn1)C(=O)N[C@H](CCC(=O)O)C(=O)N[C@H](CCCNC(=N)N)C(=O)N[C@H](CCCCN)C(=O)N[C@H](CC(C)C)C(=O)N[C@@H](C(=O)N[C@@H](C(=O)N[C@H](CCCCN)C(=O)N[C@H](CC(C)C)C(=O)N[C@H](CCC(N)=O)C(=O)N[C@H](CC(N)=O)C(=O)N[C@H](CO)C(=O)N[C@H](CCC(=O)O)C(N)=O)[C@H](C)OP(=O)(O)O)C(C)C)[C@H](C)O
notes: NLS region of NUPR1 (nuclear protein 1), residues 54-74 of the intact protein, made of D-amino acids, Thr68 phosphorylated; Mirror-image (all-D) peptide; also called D-NLS-NUPR1phospho; source: synthetic peptide (Genscript, purity higher than 95%)
B2: D-enantiomeric, isolated NLS region of NUPR1 (residues 54–74 of the intact protein) (peptide)
peptide: Ac-[dY][dT][dN][dR][dP][dS][dP]GG[dH][dE][dR][dK][dL][dV][dT][dK][dL][dQ][dN][dS][dE]-NH2
notes: NLS region of NUPR1 (nuclear protein 1), residues 54-74 of the intact protein, made of D-amino acids; also called D-NLS-NUPR1; wild-type D-NLS-NUPR1; source: synthetic peptide (Genscript, purity higher than 95%)

What was measured:
[1] = target: T1, ∆Impα3 (Homo sapiens, UniProt O00629); assay: Biolayer interferometry (BLI) binding to ∆Impα3; settings: BLItz, ∆Impα3 immobilized via His-tag (0.25 μM), peptide 1–10 μM, 10 × kinetics buffer, 25 °C, error from pseudo-first order fit, at least two repeats
T1 construct: IBB-depleted species of Impα3 (residues 64–521 of the intact protein); made in house
T1 sequence (O00629 64-521): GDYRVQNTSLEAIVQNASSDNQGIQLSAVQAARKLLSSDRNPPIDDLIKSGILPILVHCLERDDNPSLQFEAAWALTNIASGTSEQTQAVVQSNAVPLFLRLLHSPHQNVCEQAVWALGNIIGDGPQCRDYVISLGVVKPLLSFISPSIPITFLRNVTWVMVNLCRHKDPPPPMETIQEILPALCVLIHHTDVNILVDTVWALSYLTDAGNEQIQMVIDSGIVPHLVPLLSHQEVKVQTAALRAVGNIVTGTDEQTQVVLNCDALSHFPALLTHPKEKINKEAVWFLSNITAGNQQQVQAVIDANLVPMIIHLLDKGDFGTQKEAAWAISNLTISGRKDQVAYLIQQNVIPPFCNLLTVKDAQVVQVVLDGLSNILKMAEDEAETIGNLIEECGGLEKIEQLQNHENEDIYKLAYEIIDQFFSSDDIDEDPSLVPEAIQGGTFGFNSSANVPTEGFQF
Procedure: (§1) The association (kon) and dissociation (koff) rate constants of the binding of D-NLS peptides to either Impα3 or ∆Impα3 were determined by using a BLItz system (ForteBio, Pall, Barcelona, Spain). The buffer used in the experiments was that recommended by the manufacturer. […] The peptide concentrations were in a range from 1 to 10 μM during the association step. The general scheme of the protein association/dissociation reactions in the BLItz system for the D-NLS peptides was as follows: 30 s of initial baseline acquisition with the 10 × kinetics buffer (provided by the manufacturer); 120 s of loading either Impα3 and ∆Impα3 into the biosensor; 30 s of baseline acquisition with the 10 × kinetics buffer; 120 s of association of each peptide to the biosensor (which had been previously loaded with the importin species); and 120 s of monitoring of the dissociation of each peptide from the biosensor. All experiments were carried out at 25 °C.
(§2) Fittings of the BLI sensorgrams was carried out by using KaleidaGraph, as previously described. The interferometry response during the association step, R(t) (measured in response units, RU), and the binding rate, dR(t)/dt, could be used to evaluate the kinetics of the formation of the complex between Impα3/∆Impα3 and each D-NLS, according to:(2) dR/dt=konD-NLSRmax−Rt−koffR(t) where Rmax is proportional to the total concentration of biosensor-bound importin species; and [D-NLS] represents the concentration of the corresponding D-NLS peptide.
(§3) In Equation (2), R(t) is given by:(3) Rt= Req−Reqe^(−kobs t−t0) where Req is the steady-state (or equilibrium) response obtained at infinite time, when dR(t)/dt = 0, and t0 = 180 s is the time at which the association step between biosensor-immobilized Impα3/∆Impα3 and D-NLS in the solution started. We fitted the experimentally obtained R(t) under any condition as:(4) Rt= Req−Reqe^−kobs t−t0−R’eq(t−t0) where R^′eq was included to consider the lineal drift observed at longer times.
(§4) The dissociation process was always fitted to a single exponential, with R(t) given by:(6) Rt=R1 e^(−kofft−t0)−R^″eq(t−t0) where t0 = 300 is the time at which the dissociation of the D-NLS from the biosensor-bound Impα3/∆Impα3 started in our experimental set-up, R1 is the response level when dissociation starts, and the parameter R^″eq considers the linear drift observed at longer times.
(§5) The experiments were repeated at least twice for each peptide with each importin species.

[2] = target: T2, Impα3 (Homo sapiens, UniProt O00629); assay: Biolayer interferometry (BLI) binding to Impα3; settings: BLItz, Impα3 immobilized via His-tag (0.25 μM), peptide 1–10 μM, 10 × kinetics buffer, 25 °C, error from pseudo-first order fit, at least two repeats
T2 construct: Human importin α3 isoform (residues 1–521); made in house
T2 sequence (O00629 1-521): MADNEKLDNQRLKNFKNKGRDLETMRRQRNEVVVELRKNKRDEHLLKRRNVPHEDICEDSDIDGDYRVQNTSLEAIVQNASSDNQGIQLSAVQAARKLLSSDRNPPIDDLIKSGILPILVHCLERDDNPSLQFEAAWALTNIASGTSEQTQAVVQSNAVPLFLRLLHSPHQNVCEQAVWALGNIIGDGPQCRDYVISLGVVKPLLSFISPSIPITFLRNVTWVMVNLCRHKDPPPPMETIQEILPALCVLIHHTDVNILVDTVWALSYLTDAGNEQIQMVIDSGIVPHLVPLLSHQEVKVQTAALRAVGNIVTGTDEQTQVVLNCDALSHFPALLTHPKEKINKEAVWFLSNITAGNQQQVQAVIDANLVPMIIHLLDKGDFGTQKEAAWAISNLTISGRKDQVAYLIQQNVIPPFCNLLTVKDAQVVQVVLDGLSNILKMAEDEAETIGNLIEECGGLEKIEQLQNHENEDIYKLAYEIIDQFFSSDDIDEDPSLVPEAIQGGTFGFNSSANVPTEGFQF
Procedure: as §1, §2, §3, §4, §5

[3] = Translational diffusion NMR (DOSY) of NLS peptides; type: physicochemical; settings: ~100 μM peptide
Source text: For the four peptides, we measured the experimental value of D for dioxane ranging from (1.2 ± 0.1) × 10^−5 to (1.05 ± 0.02) × 10^−5 cm^2 s^−1 in each solution containing the corresponding peptide; we assumed a hydrodynamic radius of 2.12 Å for dioxane (Table 1) under any condition. […] Furthermore, the values of D were similar for the D- and L-peptides, and the latter were already being described as disordered. Thus, we can conclude that the four D-peptides were monomeric and disordered, like the L-form counterparts, and, then, there was no difference in the hydrodynamic properties of the peptides by changing the enantiomeric nature of the residues.
The NMR spectra were acquired at 10 °C on a Bruker Avance III spectrometer (Bruker GmbH, Mannheim, Germany), equipped with a triple-resonance probe and z-pulse field gradients. All NMR experiments with D-NLS peptides were carried out in 50 mM deuterated Tris buffer (not corrected for isotope effects), pH 7.2. Spectra were calibrated with TSP, by considering pH-dependent changes in its chemical shifts; probe temperature was calibrated with pure methanol.
The typical D-NLS peptide concentrations in DOSY experiments were ~100 μM, and 128 scans were acquired, in which the gradient strength was varied linearly in sixteen steps, between 2 and 95% of the total power of the gradient coil. Measurements of the translational self-diffusion coefficient, D, were performed with the pulsed-gradient spin-echo sequence in the presence of 100% D2O. Details on the experimental conditions and fitting of the resulting curves have been described elsewhere. Gradient strength was calibrated by using the value of D for the residual proton water signal in a sample containing 100% D2O, in a 5 mm tube [23]. Gradient length was 2.5 ms; the time between the two pulse gradients in the sequence was 250 ms; and the recovery delay between the bipolar gradients was 100 μs. The signals from methyl groups between 0.8 and 1.0 ppm were used for peak integration, for all the D-NLS peptides. A final concentration of 1% of dioxane, which was assumed to have a hydrodynamic radius Rh of 2.12 Å [23], was added to the solution of each peptide.

[4] = target: T3, IBB-depleted species of Impα3 (residues 64–521 of the intact protein) (human, UniProt O00629 64-521); assay: BLI; His-tagged Impα3 or ∆Impα3 immobilised on His-tag biosensors at 0.25 μM; peptides 1 to 10 μM; BLItz system, manufacturer's 10x kinetics buffer; 25 °C; kon and koff from pseudo-first-order plots; apparent Kd = koff/kon, two-state process assumed; settings: both partners purified
T3 construct: PDB 5XZX was used only as the model of ∆Impα3 for docking; its limits may differ from 64-521; also called ΔImpα3; truncated importin species
T3 sequence (looked up): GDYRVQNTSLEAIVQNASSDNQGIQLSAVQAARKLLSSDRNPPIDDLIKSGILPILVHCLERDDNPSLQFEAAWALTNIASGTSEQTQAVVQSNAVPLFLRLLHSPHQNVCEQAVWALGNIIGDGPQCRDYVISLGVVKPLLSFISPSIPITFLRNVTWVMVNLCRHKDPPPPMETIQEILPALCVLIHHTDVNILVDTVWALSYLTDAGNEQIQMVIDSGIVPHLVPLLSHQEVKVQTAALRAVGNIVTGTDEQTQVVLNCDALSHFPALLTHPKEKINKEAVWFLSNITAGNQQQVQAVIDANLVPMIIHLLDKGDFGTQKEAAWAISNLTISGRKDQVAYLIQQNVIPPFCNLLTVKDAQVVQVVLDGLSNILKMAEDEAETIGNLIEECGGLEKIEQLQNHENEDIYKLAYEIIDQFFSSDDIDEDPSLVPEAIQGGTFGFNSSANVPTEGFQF

[5] = target: T4, Human importin α3 isoform (residues 1–521) (human, UniProt O00629 1-521); assay: as above; settings: both partners purified
T4 construct: human importin α3 (Impα3, KPNA4), residues 1-521, intact protein with the N-terminal IBB domain; The materials list Ni2+-resin, ampicillin and IPTG, so expression in E. coli is surmised; also called Impα3; KPNA4
T4 sequence (looked up): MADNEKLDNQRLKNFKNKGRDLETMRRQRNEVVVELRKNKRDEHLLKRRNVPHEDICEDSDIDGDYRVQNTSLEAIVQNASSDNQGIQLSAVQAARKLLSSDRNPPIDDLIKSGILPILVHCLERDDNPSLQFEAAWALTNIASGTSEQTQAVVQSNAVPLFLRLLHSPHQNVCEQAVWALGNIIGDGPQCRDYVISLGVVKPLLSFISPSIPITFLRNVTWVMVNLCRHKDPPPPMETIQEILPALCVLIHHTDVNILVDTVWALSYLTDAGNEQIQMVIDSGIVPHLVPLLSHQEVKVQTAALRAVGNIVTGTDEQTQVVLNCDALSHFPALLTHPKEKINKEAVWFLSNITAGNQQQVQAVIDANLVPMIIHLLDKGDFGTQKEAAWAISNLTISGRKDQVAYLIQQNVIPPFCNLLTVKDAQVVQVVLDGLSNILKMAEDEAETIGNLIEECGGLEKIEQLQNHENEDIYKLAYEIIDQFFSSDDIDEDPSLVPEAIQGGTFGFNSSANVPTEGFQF

| Molecule | kon [1] [M⁻¹ s⁻¹] | kon [2] [M⁻¹ s⁻¹] | Hydrodynamic radius Rh ([3]; D-peptides, by comparison with D of dioxane (1%, Rh 2.12 Å), 50 mM deuterated Tris pH 7.2, 10 °C) [Å] | Diffusion coefficient D ([3]; 50 mM deuterated Tris pH 7.2, 100% D2O, 10 °C) [cm^2 s^−1 × 10^6] | Kd [4] [µM] | koff [4] [s⁻¹] | kon [4] [M⁻¹ s⁻¹] | Kd [5] [µM] | koff [5] [s⁻¹] | kon [5] [M⁻¹ s⁻¹] |
| --- | --- | --- | --- | --- | --- | --- | --- | --- | --- | --- |
| YT^54NRPSPGGHERKLVTKLQNSE^74 [D-NLS-NUPR1, D-enantiomeric, isolated NLS region of NUPR1 (residues 54–74 of the intact protein)] | 110000 ± 20000 | 50000 ± 10000 | 9 ± 1 | 1.78 ± 0.08 |  |  |  |  |  |  |
| B1 |  |  |  |  | 8 | 0.05 | 6000 | 13 | 0.13 | 10000 |
| B2 |  |  |  |  |  |  | 110000 |  |  | 50000 |

Source: paper PMC12386367, “Importin α3 Is Tolerant to Nuclear Localization Signal Chirality” (International Journal of Molecular Sciences, 2025)
